# Laboratory results published in US20230070752A1 (KOREA ADVANCED INSTITUTE OF SCIENCE AND TECHNOLOGY, published 2023).
# Positions count from the first letter of the chain named. In names and notes the source's numbering stands.
# T1: IFNλR1 (UniProt Q8IU57 21-228, limits assumed)
# T1 construct: Soluble protein used at 500, 1000 and 2000 nM in BLI; also called IFNLR1; interferon lambda receptor 1
# T1 sequence (looked up): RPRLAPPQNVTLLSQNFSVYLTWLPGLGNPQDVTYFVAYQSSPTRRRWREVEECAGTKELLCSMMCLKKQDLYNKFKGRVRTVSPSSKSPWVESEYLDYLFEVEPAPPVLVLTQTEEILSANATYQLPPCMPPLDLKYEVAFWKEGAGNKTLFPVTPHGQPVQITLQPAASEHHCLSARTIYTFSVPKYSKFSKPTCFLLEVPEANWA
# T2: IL10Rβ (UniProt Q08334 20-220, limits assumed)
# T2 construct: Soluble protein used at 500, 1000 and 2000 nM in BLI; also called IL10RB; interleukin-10 receptor beta
# T2 sequence (looked up): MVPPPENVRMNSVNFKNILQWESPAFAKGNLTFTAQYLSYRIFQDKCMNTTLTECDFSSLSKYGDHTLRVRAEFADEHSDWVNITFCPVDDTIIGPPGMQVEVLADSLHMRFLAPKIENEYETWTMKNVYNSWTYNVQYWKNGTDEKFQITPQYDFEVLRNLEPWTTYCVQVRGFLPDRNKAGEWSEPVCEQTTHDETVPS
# B1: eIFNλ4 (wild-type IFNλ4 produced in E. coli, R&D Systems 9165-IL) (ligand)
# chain: MAPRRCLLSHYRSLEPRTLAAAKALRDRYEEEALSWGQRNCSFRPRRDPPRPSSCARLRHVARGIADAQAVLSGLHRSELLPGAGPILELLAAAGRDVAACLELARPGSSRKVPGAQKRRHKPRRADSPRCRKASVVFNLLRLLTWELRLAAHSGPCL
# modifications: not glycosylated (E. coli); biotinylated for BLI
# notes: Bought as protein and used as the wild-type control; also called eIFNL4; control wild-type IFNλ4
# B2: M1 (L28N) IFNλ4 variant (ligand)
# chain: B1 chain with M1A, L7N
# modifications: N-glycan at Asn61 (L28N not glycosylated); biotinylated for BLI
# notes: Secreted from Expi293F cells as a C-terminal Protein A fusion; Protein A was removed by thrombin at an LVPRGS site; Monomer by SDS-PAGE; also called L28N (M1)
# B3: M3 (P73N) IFNλ4 variant (ligand)
# chain: B1 chain with M1A, P52N
# modifications: N-glycans at Asn61 and at P73N (Asn73); biotinylated for BLI
# notes: Secreted from Expi293F cells as a C-terminal Protein A fusion; Protein A was removed by thrombin at an LVPRGS site; Monomer by SDS-PAGE; also called P73N (M3)
# B4: M7 (L28N+P73N) IFNλ4 variant (ligand)
# chain: B1 chain with M1A, L7N, P52N
# modifications: N-glycans at Asn61 and at P73N (Asn73); L28N not glycosylated; biotinylated for BLI
# notes: Secreted from Expi293F cells as a C-terminal Protein A fusion; Protein A was removed by thrombin at an LVPRGS site; Monomer by SDS-PAGE; also called double mutant
# Key:
# IFNλR1 [1] = target: T1, IFNλR1; assay: BLI (BLItz), biotinylated IFNλ4 on streptavidin sensor, IFNλR1 in solution at 500-2000 nM, 1:1 global fit
# Description: (§1) Sensorgrams were obtained from BLItz instrument. Data points are shown in grey and the corresponding fits are shown in red (IFNλR1) and blue (IL10Rβ). KD values were calculated from 1:1 global fitting.
# (§2) The binding kinetics of the IFNλ4 variant to IFNλR1 and IL10Rβ were measured using biolayer light interferometry (BLI) in a BLItz system (ForteBio, Pall Life Sciences). The mixture was stirred in a washing buffer (200 mM NaCl, 20 mM Tris-HCl pH 8, 5% glycerol, 0.01% Tween-20) at 2,200 rpm. Analysis was performed at room temperature. 0.25 mg/ml of biotinylated IFNλ4 was loaded on the surface of the streptavidin biosensor (ForteBio) for 1 minute, and then the loaded biosensor was washed with a washing buffer (200 mM NaCl, 20 mM Tris-HCl pH 8, 5% glycerol, 0.01% Tween-20) for 2 minutes to remove unbound protein. The biosensor tip was immersed in drops containing the indicated concentrations of IFNλR1 and IL10Rβ (500, 1000 and 2000 nM). Associations (on rate, kon) were measured at intervals of 2 minutes. Subsequently, the sensor was immersed in the washing buffer for 2 minutes to measure dissociations (off-rate koff). KD measured in nanomoles was calculated as a ratio of […]. The resulting data was analyzed by fitting to a 1:1 ligand model using the entire global fitting function.
# (§3) To investigate whether the mutation and the additional glycan on IFNλ4 variants affect their binding to their receptors, IL10Rβ and IFNλR1, in-vitro binding affinity of the IFNλ4 variants to IL10Rβ and IFNλR1 was evaluated using biolayer light interferometry (BLI) and then compared with that of wild-type IFNλ4 (eIFNλ4) purified from E. coli. Similar to eIFNλ4, the three IFNλ4 variants appropriately bound to the receptor, and the binding affinity for IFNλR1 was higher than the binding affinity for IL10Rβ (FIG. 4).
# IL10Rβ [2] = target: T2, IL10Rβ; assay: BLI (BLItz), biotinylated IFNλ4 on streptavidin sensor, IL10Rβ in solution at 500-2000 nM, 1:1 global fit
# Description: as §1, §2, §3
# IFNλR1 [3] = target: T1, IFNλR1; assay: BLI (BLItz), biotinylated eIFNλ4 immobilized on streptavidin biosensor, IFNλR1 as analyte (500, 1000, 2000 nM), 1:1 global fit
# Description: as §1, §2
# IL10Rβ [4] = target: T2, IL10Rβ; assay: BLI (BLItz), biotinylated eIFNλ4 immobilized on streptavidin biosensor, IL10Rβ as analyte (500, 1000, 2000 nM), 1:1 global fit
# Description: as §1, §2
# IFNλR1 [5] = target: T1, IFNλR1; assay: BLI (BLItz), biotinylated eIFNλ4 immobilized on streptavidin biosensor, IFNλR1 as analyte (500, 1000, 2000 nM), 1:1 global fit; column head k dis
# Description: as §1, §2
# IL10Rβ [6] = target: T2, IL10Rβ; assay: BLI (BLItz), biotinylated eIFNλ4 immobilized on streptavidin biosensor, IL10Rβ as analyte (500, 1000, 2000 nM), 1:1 global fit; column head k dis
# Description: as §1, §2
# IFNλR1 [7] = target: T1, IFNλR1; assay: BLI (BLItz), biotinylated IFNλ4 variant immobilized on streptavidin biosensor, IFNλR1 as analyte (500, 1000, 2000 nM), 1:1 global fit
# Description: as §1, §2
# IL10Rβ [8] = target: T2, IL10Rβ; assay: BLI (BLItz), biotinylated IFNλ4 variant immobilized on streptavidin biosensor, IL10Rβ as analyte (500, 1000, 2000 nM), 1:1 global fit
# Description: as §1, §2
# IFNλR1 [9] = target: T1, IFNλR1; assay: BLI (BLItz), biotinylated IFNλ4 variant immobilized on streptavidin biosensor, IFNλR1 as analyte (500, 1000, 2000 nM), 1:1 global fit; column head k dis
# Description: as §1, §2
# IL10Rβ [10] = target: T2, IL10Rβ; assay: BLI (BLItz), biotinylated IFNλ4 variant immobilized on streptavidin biosensor, IL10Rβ as analyte (500, 1000, 2000 nM), 1:1 global fit; column head k dis
# Description: as §1, §2
Binder,Kd (IFNλR1 [1]) [nM],Kd (IL10Rβ [2]) [nM],kon (IFNλR1 [3]) [M⁻¹ s⁻¹],kon (IL10Rβ [4]) [M⁻¹ s⁻¹],koff (IFNλR1 [5]) [s⁻¹],koff (IL10Rβ [6]) [s⁻¹],kon (IFNλR1 [7]) [M⁻¹ s⁻¹],kon (IL10Rβ [8]) [M⁻¹ s⁻¹],koff (IFNλR1 [9]) [s⁻¹],koff (IL10Rβ [10]) [s⁻¹]
B1,19,71,21300,28800,0.000397,0.00203,,,,
B2,14,49,,,,,50200,21300,0.000686,0.00104
B3,22,51,,,,,29200,29100,0.000647,0.00148
B4,17,49,,,,,58300,26200,0.000967,0.00129
